Measured values as given in a protein production outcome set (Wang et al. 2014).

Assay: label from the status in PepcDB records

Sequence | protein production
MSLDALTTLPIKKHTALLNRFPETRFVTQLAKKRASWIVFGHYLTPAQFEDMDFFTNRFNAILDMWKVGRYEVALMDGELTSEHETILKALELDYARIQDVPDLTKPGLIVLDMDSTAIQIECIDEIAKLAGVGEEVAEVTERAMQGELDFEQSLRLRVSKLKDAPEQILSQVRETLPLMPELPELVATLHAFGWKVAIASGGFTYFSDYLKEQLSLDYAQSNTLEIVSGKLTGQVLGEVVSAQTKADILLTLAQQYDVEIHNTVAVGDGANDLVMMAAAGLGVAYHAKPKVEAKAQTAVRFAGLGGVVCILSAALVAQQKLSWKSKEGHHHHHH | not failed
MHPNIATLLSANLGESRTRHLLSLVSVPDGLPSDAEGRATRAEIAQALNMVLFAGILDRVPTGRAYTDDVAATGGKVVFDHGALRTVKWRDNGALPEGEAAFTRILRPLGYRLNGNYPLDRISMTGRSYAHADAPEGIAQFFVSEFHPERFSDAFREAVGRVTGNSADPLTPRAQTLLWQLDRDGVLTVADGAELIGLLVPCFERQHGVPRLADYETLLRESAEMAWIATEGNAFNHATDRVDDVFGLSEQQKALGRPMKDKVEVSGSGRVKQTAFRADTVRRQFIGAQGETVERDVPGSFYEFITRDRFADAPAASPRVDLGFDAGNAQGIFKMTAAV | not failed
GERRKDRPYVEEPRHVKVQKGSEPLGISIVSGEKGGIYVSKVTVGSIAHQAGLEYGDQLLEFNGINLRSATEQQARLIIGQQCDTITILAQYNPHVHQLSSHSR | not failed
MTNLKLFNFEGSKVRTVILDEEPFFVGIDVASILGYSNPQKAMRDHCKKPAESLVNDSLGRPRRTLVLSESDVYRLVLRSDLPSAEKFENWLMDEVLPSIRKHGAYMTDDTIEKAITDPDFLIRLATNLKEEKSKRLEAEQKIEAQRPKVLFADAVSDTEGTILIRDLAKLIQQNGVDIGEKRLFEWLRQNGYLISRRGTDYNRPTQKSMELGLFKIKETAIMRSSGAHTAITAKVTGKGQLYFVNKFLEQSLVAN | failed
HYTPKSLTEAIVAETLTPLTYFGPVEGSACKEWTLKTPAELLDLKICDPAMGSGAFLVQACRWLADRLVEAWAQAEIKGKIINVDGNVLDDLSSNELMPHDIDARINIARYLIAERCLYGIDLNPLAVELAKLSIWLVTLAKGRPFGFLDHSLRCGDSLLGIHQVNQLIELSVLTNSDDQDTLFSKDIRKAIYDASKLRQRLREMPIGDIHDIEEMERLNTEAHKRLYKAKKIADALVGEIFATGANFSAREARLKMLSLKLKESVEEDENIFMEISYQGTVKLQQELPSGRSKRIPIHWPLEFPEVFIRTCSGFDAIIGNPPFLGGRKITGVFGNLYREYLVANIAKGERGSSADLVAYFFLRSFYLLRESGCLGLIAVNSIAEGDSRQIGLERLLQSGAQIFSATPNEPWPGKAAVVTSRIHLIKGAFFGEKLLNGKKVAIISAFLSDQNEWSPKILKENLGQS | failed
MKCKRLNEVIELLQPAWQKEPDLNLLQFLQKLAKESGFDGELADLTDDILIYHLKMRDSAKDAVIPGLQKDYEEDFKTALLRARGVIKE | failed
MDAAKRGFPPVVDAKTCVLILGSLPGDASLAAGQYYGHPRNAFWRLMEGVIDAPLVVRAYEDRLVTLLAHGVGLWDVIETARRPGSLDAAIREPAANDLMALIDTLPALRLVAFNGGTAGRLGGRLIGTRVSTLALPSSSPAYAARTFAQKAAAWAALRDGLADTYSRPHPEPVEGPGRPPRRGRPAPRQP | failed
SAVSARLRTTAEDTSIAKSTQDPIGDTEISVANAKGSSDSNIKNSPGGNSVGQESELEHVPEEDDSGDKEADHEDSETATAKKRKAQPLKNPKKSLKRGRVPAPLNLSDSNTNTHGGNIKDGNLASSNSAHFPPVANQNVKSAPAQVTQHSKFQPRVQYLGKASSRQSIQVNNSSNSYGKPHMPSAGIMSAMNPYMPMNRYIMSPYYNPYGIPPPHMLNKPIMTPYVSYPYPMGPRTSIPYAMQGGNARPYEENEYSASNYRNKRVNDSYDSPLSGTASTGKTRRSEEGSRNSSVGSSANAGPTQQRADLRPADMIPAEEYHFERDALLSANTKARSASTSTSTSTSTNRDRSSWHEAEPNKDEEEGTDLAIEDGAVPTPTFTTFQRTSQPQQQSPSLLQGEIRLSSHIFAFEFPLSSSNVDKKMFMSICNKVWNESKELTKKSSSHHRTGK | failed
